Assay results as given in paper PMC9331583.

Biological target: apolipoprotein E (human (endogenous in Huh7.5 and HMC3)) (UniProt P02649)
UniProt P02649, sequence (P02649 19-317): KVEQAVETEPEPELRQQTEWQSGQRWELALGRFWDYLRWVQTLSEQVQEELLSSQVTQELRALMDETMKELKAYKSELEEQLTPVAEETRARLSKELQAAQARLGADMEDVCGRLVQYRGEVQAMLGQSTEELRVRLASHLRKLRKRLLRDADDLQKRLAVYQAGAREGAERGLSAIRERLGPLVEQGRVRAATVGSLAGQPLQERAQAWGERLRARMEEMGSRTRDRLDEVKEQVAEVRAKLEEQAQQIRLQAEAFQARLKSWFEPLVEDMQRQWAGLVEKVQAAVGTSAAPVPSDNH

## Zika envelope glycoprotein (natural protein)
  decrease in infection of Huh7.5 cells (percent of cells positive for ZIKV envelope by FACS, relative to isotype Abs) by ZIKV particles pre-incubated with goat anti-ApoE Abs at 1.5 and 10 μg/mL: 60%
